“Also recorded” adds a separate entry of the source.
T1: FGF23 binding to FGFR1c (Homo sapiens, UniProt P11362+Q9GZV9)
T1 construct: Fc-coupled FGFR ectodomains were immobilized on protein A/G beads; purchased R&D Systems 2604FG025/CF or 2629FG025/CF; 658FR050
T1 sequence (Q9GZV9 25-251): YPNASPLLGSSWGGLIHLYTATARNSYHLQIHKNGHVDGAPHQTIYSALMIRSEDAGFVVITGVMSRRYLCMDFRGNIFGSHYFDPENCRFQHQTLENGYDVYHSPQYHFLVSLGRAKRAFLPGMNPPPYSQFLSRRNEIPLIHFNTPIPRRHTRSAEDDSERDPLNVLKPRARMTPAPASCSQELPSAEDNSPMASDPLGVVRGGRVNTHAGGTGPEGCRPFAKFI
T1 sequence (P11362 22-376 limits assumed): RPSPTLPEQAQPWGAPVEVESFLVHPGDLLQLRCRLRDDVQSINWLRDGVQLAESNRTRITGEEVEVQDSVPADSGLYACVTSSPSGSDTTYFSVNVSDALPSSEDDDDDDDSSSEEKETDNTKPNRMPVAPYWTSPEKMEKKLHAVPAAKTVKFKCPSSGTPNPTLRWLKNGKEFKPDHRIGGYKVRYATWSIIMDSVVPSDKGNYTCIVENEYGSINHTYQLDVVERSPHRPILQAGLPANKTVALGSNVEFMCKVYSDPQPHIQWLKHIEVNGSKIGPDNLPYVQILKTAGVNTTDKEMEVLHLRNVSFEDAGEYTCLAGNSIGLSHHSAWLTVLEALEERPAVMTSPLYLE

T2: FGF23 binding to FGFR4 (Homo sapiens, UniProt P22455+Q9GZV9)
T2 construct: Fc-coupled FGFR ectodomains were immobilized on protein A/G beads; purchased R&D Systems 2604FG025/CF or 2629FG025/CF; 685FR050
T2 sequence (Q9GZV9 25-251): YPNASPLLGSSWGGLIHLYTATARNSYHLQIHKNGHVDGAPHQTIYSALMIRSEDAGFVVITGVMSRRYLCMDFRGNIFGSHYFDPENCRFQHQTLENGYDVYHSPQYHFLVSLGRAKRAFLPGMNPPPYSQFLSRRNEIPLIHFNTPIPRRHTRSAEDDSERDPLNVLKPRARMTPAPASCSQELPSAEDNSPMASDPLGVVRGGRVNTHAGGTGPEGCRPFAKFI
T2 sequence (P22455 22-369 limits assumed): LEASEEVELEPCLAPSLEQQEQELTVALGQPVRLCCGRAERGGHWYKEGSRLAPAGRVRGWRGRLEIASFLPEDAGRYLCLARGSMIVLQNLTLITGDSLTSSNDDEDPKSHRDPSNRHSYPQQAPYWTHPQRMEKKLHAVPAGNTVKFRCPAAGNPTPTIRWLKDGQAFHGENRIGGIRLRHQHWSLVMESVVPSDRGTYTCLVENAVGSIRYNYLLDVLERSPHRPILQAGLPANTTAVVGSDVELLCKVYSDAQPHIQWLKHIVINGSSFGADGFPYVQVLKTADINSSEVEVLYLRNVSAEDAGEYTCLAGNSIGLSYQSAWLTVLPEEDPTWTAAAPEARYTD

T3: FGF23 binding to FGFR3c (Homo sapiens, UniProt P22607+Q9GZV9)
T3 construct: Fc-coupled FGFR ectodomains were immobilized on protein A/G beads; purchased R&D Systems 2604FG025/CF or 2629FG025/CF; 766FR050
T3 sequence (Q9GZV9 25-251): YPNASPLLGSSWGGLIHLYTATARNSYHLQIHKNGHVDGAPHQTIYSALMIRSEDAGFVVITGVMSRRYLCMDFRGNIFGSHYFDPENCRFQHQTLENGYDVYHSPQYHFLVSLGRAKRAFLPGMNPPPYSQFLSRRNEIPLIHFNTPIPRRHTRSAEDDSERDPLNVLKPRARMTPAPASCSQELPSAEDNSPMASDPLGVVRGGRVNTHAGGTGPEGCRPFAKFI
T3 sequence (P22607 23-375 limits assumed): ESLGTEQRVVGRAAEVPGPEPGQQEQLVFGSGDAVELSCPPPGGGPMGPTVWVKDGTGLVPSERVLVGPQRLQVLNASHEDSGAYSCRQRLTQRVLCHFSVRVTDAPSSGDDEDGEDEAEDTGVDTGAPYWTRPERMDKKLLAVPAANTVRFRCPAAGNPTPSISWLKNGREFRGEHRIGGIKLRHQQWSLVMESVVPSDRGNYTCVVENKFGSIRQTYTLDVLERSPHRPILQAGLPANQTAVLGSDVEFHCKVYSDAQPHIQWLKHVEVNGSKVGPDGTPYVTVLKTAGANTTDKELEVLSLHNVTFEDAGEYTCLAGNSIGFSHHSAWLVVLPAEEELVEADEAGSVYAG


Experiments:
Experiment in all cases: Pull-down of FGF23 with Fc-FGFR on protein A/G beads with sKL, heparin or PBS
Conditions in all cases: with heparin, or alone
FGF23 binding to FGFR1c = biological target: T1, FGF23 binding to FGFR1c
Protocol: (§1) To study the interaction between Fc-tagged FGFR isoforms (Fc-FGFR), FGF isoforms, and sKL, immunoprecipitation studies were conducted. Protein A beads (6501, BioVision) and protein G beads (6511, BioVision) were used at 25 μl of a 50% stock slurry per sample in a total bead volume of 50 μl. Beads were washed 5× in activity buffer (50 mM Tris [pH 7.4], 200 mM NaCl, 0.01% Tween 20). Bead spin-down assays were all performed for 2 minutes at 5000 g. Beads were resuspended in 1 ml of activity buffer in a 1.5-ml snap cap tube. One microgram of Fc-FGFR1 to 4 was incubated with the beads for 1 hour on a bead rotator. Control samples were incubated with 2 μg of anti-FGF antibody instead of Fc-FGFR. Beads were then pelleted at 5000 g for 2 minutes and washed 5× with activity buffer. Beads were resuspended and incubated with different combinations of 500 ng of FGF, 1 μg of sKL, 1.6 United States Pharmacopeia (USP) units of heparin, or phosphate-buffered saline (PBS). Beads were incubated for 1 hour on a tube rotator, and beads were pelleted and washed as before. One hundred microliters of 1× Laemmli sample buffer (1610737, Bio-Rad) with 1.42 M 2-mercaptoethanol was added, and samples were boiled for 5 minutes. Samples were analyzed using SDS-PAGE and Western blotting.
(§2) The sample (20 μl) was loaded onto Mini-PROTEAN TGX Precast Gel 4-20% for experiments with <9 samples (4568094, Bio-Rad) or Criterion TGX Precast Gel 4-20% (5678094, Bio-Rad) for experiments with >9 samples. Gels were run in 1× Tris/Glycine/SDS buffer (1610732, Bio-Rad) at 150 V and stopped when the sample dye reached the end of the gel. Gels were removed and electrotransferred via a semi-dry cassette (1703940, Bio-Rad) in I× Tris/Glycine buffer (1610734, Bio-Rad) with 20% methanol. Gels were transferred onto polyvinylidene diflouride membranes (IPVH00010, Millipore) at 20 V for 1 hour. Membranes were then blocked in 5% dried milk with 0.5% Tween 20 diluted in Tris-buffered saline (TBST; pH 7.5) for 1 hour and probed with antibodies against specific antigens at 1:1000 in TBST with 5% dried milk. Blots were washed 3× for 5 minutes in TBST and probed with HRP-coupled secondary antibodies against specific species at 1:10,000 in TBST with 5% dried milk. Membranes were imaged on the SRX-101A X-ray film developer (Konica Minolta).

FGF23 binding to FGFR4 = biological target: T2, FGF23 binding to FGFR4
Protocol: as §1, §2

FGF23 binding to FGFR3c = biological target: T3, FGF23 binding to FGFR3c
Protocol: as §1, §2

| Molecule | FGF23 co-precipitation with Fc-FGFR1c (FGF23 binding to FGFR1c) | FGF23 co-precipitation with Fc-FGFR4 (FGF23 binding to FGFR4) | FGF23 co-precipitation with Fc-FGFR3c (FGF23 binding to FGFR3c) |
| --- | --- | --- | --- |
| FGF23: recombinant fibroblast growth factor 23 protein from R&D Systems (protein) YPDTSPLLGSNWGSLTHLYTATARTSYHLQIHRDGHVDGTPHQTIYSALMITSEDAGSVVITGAMTRRFLCMDLHGNIFGSLHFSPENCKFRQWTLENGYDVYLSQKHHYLVSLGRAKRIFQPGTNPPPFSQFLARRNEVPLLHFYTVRPRRHTRSAEDPPERDPLNVLKPRPRATPVPVSCSRELPSAEEGGPAASDPLGVLRRGRGDARGGAGGADRCRPFPRFV | no FGF23 binding was detected | no FGF23 binding was detected | no FGF23 binding was detected |
| sKL: recombinant soluble α-klotho ectodomain, mouse aa 35-982 and human aa 34-981, FLAG- or Strep/His-tagged, purified from HEK293 cells (protein, left off: small tags and cut ends, recombinant soluble α-klotho ectodomain, mouse aa 35-982 and human aa 34-981, FLAG- or Strep/His-tagged, purified from HEK293 cells) EPGDGAQTWARFSRPPAPEAAGLFQGTFPDGFLWAVGSAAYQTEGGWQQHGKGASIWDTFTHHPLAPPGDSRNASLPLGAPSPLQPATGDVASDSYNNVFRDTEALRELGVTHYRFSISWARVLPNGSAGVPNREGLRYYRRLLERLRELGVQPVVTLYHWDLPQRLQDAYGGWANRALADHFRDYAELCFRHFGGQVKYWITIDNPYVVAWHGYATGRLAPGIRGSPRLGYLVAHNLLLAHAKVWHLYNTSFRPTQGGQVSIALSSHWINPRRMTDHSIKECQKSLDFVLGWFAKPVFIDGDYPESMKNNLSSILPDFTESEKKFIKGTADFFALCFGPTLSFQLLDPHMKFRQLESPNLRQLLSWIDLEFNHPQIFIVENGWFVSGTTKRDDAKYMYYLKKFIMETLKAIKLDGVDVIGYTAWSLMDGFEWHRGYSIRRGLFYVDFLSQDKMLLPKSSALFYQKLIEKNGFPPLPENQPLEGTFPCDFAWGVVDNYIQVDTTLSQFTDLNVYLWDVHHSKRLIKVDGVVTKKRKSYCVDFAAIQPQIALLQEMHVTHFRFSLDWALILPLGNQSQVNHTILQYYRCMASELVRVNITPVVALWQPMAPNQGLPRLLARQGAWENPYTALAFAEYARLCFQELGHHVKLWITMNEPYTRNMTYSAGHNLLKAHALAWHVYNEKFRHAQNGKISIALQADWIEPACPFSQKDKEVAERVLEFDIGWLAEPIFGSGDYPWVMRDWLNQRNNFLLPYFTEDEKKLIQGTFDFLALSHYTTILVDSEKEDPIKYNDYLEVQEMTDITWLNSPSQVAVVPWGLRKVLNWLKFKYGDLPMYIISNGIDDGLHAEDDQLRVYYMQNYINEALKAHILDGINLCGYFAYSFNDRTAPRFGLYRYAADQFEPKASMKHYRKIIDSNGFPGPETLERFCPEEFTVCTECSFFHTRKS | could coprecipitate sKL and FGF23; also recorded: complex formation with FGFR1c | could coprecipitate sKL and FGF23 | could coprecipitate sKL and FGF23 |
